Assay results published in article PMC12199414, “A Self‐Assembling LYTAC Mediates CTGF Degradation and Remodels Inflammatory Tumor Microenvironment for Triple‐Negative Breast Cancer Therapy” (Advanced Science, 2025).

Key:
[1] = Dynamic light scattering: size, PDI, zeta potential; type: physicochemical; settings: DLS, 500 µg/mL in PBS
Procedure: A solution of 1‐Dodecanethiol (0.5 mmol) and 2,2′‐Dithiodipyridine (0.6 mmol) in 10 mL MeOH was vigorously stirred for 3 h at room temperature. The reaction mixture was diluted with petroleum ether/ethyl acetate (50:1, v/v). The purified products 2‐(dodecyldisulfaneyl)pyridine were characterized by MS. CL8‐M6P3 (1.4 mg, 0.56 µmol, 1 eq.) and 2‐(dodecyldisulfaneyl)pyridine (261.7 µg, 0.84 µmol, 1.5 eq.) dissolved in 1 mL DMF/ddH2O (1/1, v:v) was vigorously stirred for 16 h at room temperature. The products were diluted with ddH2O. The aqueous layer was extracted with ethyl acetate three times, and filtered and concentrated under reduced pressure. For particle size measurement, NanoCLY was prepared at a final concentration of 500 µg/mL in PBS, sonicated for 30 min, and used for particle size analyzer (Malvern Panalytical, UK), transmission electron microscope (TEM) analysis (JEOL, Japan) and Nanosight NS300 (Malvern Panalytical, UK). 2‐(dodecyldisulfaneyl)pyridine, ESI‐MS calcd for C17H29NS2 [M + H]^+ 312.55, found 312.20. NanoCLY, ESI‐MS calcd for C107H176N27O47P3S2 [M + H]^+ 2750.77, found 1375.50.

MDA‐MB‐231 tumor = experiment: Orthotopic xenograft MDA‐MB‐231 tumor model; type: in vivo, BALB/c nude mice
Procedure: For the orthotopic xenograft MDA‐MB‐231 tumor model, 3 × 10^6 cells were injected into the fourth pair of breast pads on the left side of the female nude mice (4–6 weeks old). To evaluate the antitumor effect of NanoCLY in vivo, the mice were treated with 10 mg kg^−1 NanoCLY daily once the tumor volume reached ≈50 mm^3, with CL8 peptide (10 mg kg^−1, daily) and FG‐3019 (30 mg kg^−1, every 3 days) as the positive control group and PBS as negative control group. The dose selection and administration frequency of NanoCLY were based on both references to previously reported protein degrader studies with similar mechanisms and effective concentrations,^[ [28], [54], [58] ^] and our preliminary in vivo dose‐escalation experiments. […] Based on this, 10 mg kg^−1 was selected for subsequent experiments. As for FG‐3019, the 30 mg kg^−1 dose was chosen based on previous studies.^[ [43], [59] ^] To evaluate the advantages of degradation strategies in vivo, the mice were treated with 10 mg kg^−1 NanoCLY daily with Nano@CL8 (10 mg kg^−1, daily) and PBS as control group. To evaluate the antitumor effect of combination therapy in vivo, the mice were treated with NanoCLY (10 mg kg^−1, daily), PTX (5 mg kg^−1, every two days), and PTX plus NanoCLY. […]

For “C12-CPSAAHYL-PEG3-[Pra(M6P)βAla]3-NH2 [NanoCLY, CL8-M6P3 joined to a lauryl chain via disulfide; self-assembling GSH-responsive LYTAC nanoparticle]”, the “polymer dispersity index (PDI)” value [1] was 0.301 ± 0.059, the “hydrodynamic diameter (size)” value ([1]; sonicated 30 min) was 118.0 ± 9.38 nm and the “tumor growth inhibition (TGI)” value (MDA‐MB‐231 tumor; 10 mg kg^−1 daily i.v., n = 6) was 59.62% and ≈ 60%. The tumor inhibition rate (MDA‐MB‐231 tumor; preliminary in vivo dose-escalation experiments, 10 mg kg^−1) was “over 50%”.
